Reference: article PMC1459065
Read-outs that look alike come from different tables or passages of the source.

Tests used:
RecA [1] = biological target: T1, RecA (Escherichia coli, UniProt P0A7G6 1-353); experiment: double filter binding
RecA [2] = biological target: T1, RecA; experiment: double filter binding; remark: listed apart in the source

T1 sequence (P0A7G6 whole entry): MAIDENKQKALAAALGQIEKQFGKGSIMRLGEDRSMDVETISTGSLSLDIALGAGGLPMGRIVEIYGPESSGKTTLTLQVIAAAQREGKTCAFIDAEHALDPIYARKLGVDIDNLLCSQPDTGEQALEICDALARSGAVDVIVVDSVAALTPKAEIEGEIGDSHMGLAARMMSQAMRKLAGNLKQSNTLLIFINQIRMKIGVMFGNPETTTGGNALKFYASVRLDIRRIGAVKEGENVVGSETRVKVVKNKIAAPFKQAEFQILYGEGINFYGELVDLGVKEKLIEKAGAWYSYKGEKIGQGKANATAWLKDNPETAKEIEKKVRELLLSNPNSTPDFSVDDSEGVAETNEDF

Binder | Kd (RecA [1]) | Kd (RecA [2])
CCACCACCACCACCACCACCACCACCACCACCACCACCACCACCACCA (ssDNA) [CCA-repeating 48mer] | 246 nM | –
TGGTGGTGGTGGTGGTGGTGGTGGTGGTGGTGGTGGTGGTGGTGGTGG (ssDNA) [TGG-repeating 48mer] | – | 91 nM
